Experimental findings from publication PMC3857803 are described below.

The experiment deals with anti-METH single chain antibody fragment scFv6H4. The experiment is described as follows: crystal structure; apo scFv6H4, hanging drop; protein 14 mg/ml in 5 mM HEPES, 100 mM NaCl, 1 mM NaN3, pH 8.0; reservoir 1.6 M ammonium sulfate, 240 mM imidazole malate, pH 8.0; space group P2(1)3, one molecule in the asymmetric unit; trimer formed by the crystallographic 3-fold axis, with a Ni2+ ion and a sulfate on the axis.

B1: anti-METH single chain antibody fragment scFv6H4 (scFv, V domains shown)
VH: EVQLQESGPSLVKPSQTLSLTCSVTGDSVTSGYWSWIRQFPGNKLDYMGYISYRGSTYYNPSLKSRISITRDTSKNQVYLQLKSVSSEDTATYYCSYFDSDDYAMEYWGQGTSVTVSG
VL: QIVLTQSPAIMSASPGEKVTLTCSASSSVSSSHLYWYQQKPGSSPKLWIYSTSNLASGVPARFSGSGSGTSYSLTISSMEAEDAASYFCHQWSSFPFTFGSGTKLEIK
The stoichiometry N is a count of units in the complex or per binding partner. Consider B1, for which the stoichiometry N stood at 3.
